Test results from patent publication US20100015650.

Biological target: T1, BRB1 tyrosine kinase substrate peptide
T1 chain: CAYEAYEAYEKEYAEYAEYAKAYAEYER

B1: TEC (protein)
chain: MNFNTILEEILIKRSQQKKKTSPLNYKERLFVLTKSMLTYYEGRAEKKYRKGFIDVSKIKCVEIVKNDDGVIPCQNKYPFQVVHDANTLYIFAPSPQSRDLWVKKLKEEIKNNNNIMIKYHPKFWTDGSYQCCRQTEKLAPGCEKYNLFESSIRKALPPAPETKKRRPPPPIPLEEEDNSEEIVVAMYDFQAAEGHDLRLERGQEYLILEKNDVHWWRARDKYGNEGYIPSNYVTGKKSNNLDQYEWYCRNMNRSKAEQLLRSEDKEGGFMVRDSSQPGLYTVSLYTKFGGEGSSGFRHYHIKETTTSPKKYYLAEKHAFGSIPEIIEYHKHNAAGLVTRLRYPVSVKGKNAPTTAGFSYEKWEINPSELTFMRELGSGLFGVVRLGKWRAQYKVAIKAIREGAMCEEDFIEEAKVMMKLTHPKLVQLYGVCTQQKPIYIVTEFMERGCLLNFLRQRQGHFSRDVLLSMCQDVCEGMEYLERNSFIHRDLAARNCLVSEAGVVKVSDFGMARYVLDDQYTSSSGAKFPVKWCPPEVFNYSRFSSKSDVWSFGVLMWEVFTEGRMPFEKYTNYEVVTMVTRGHRLYQPKLASNYVYEVMLRCWQEKPEGRPSFEDLLRTIDELVECEETFGR
  Signal to Noise ratio with BRB1 Peptide (TR-FRET kinase assay; kinase 0.5 nM): 18.6

B2: AXL (protein)
chain: HRRKKETRYGEVFEPTVERGELVVRYRVRKSYSRRTTEATLNSLGISEELKEKLRDVMVDRHKVALGKTLGEGEFGAVMEGQLNQDDSILKVAVKTMKIAICTRSELEDFLSEAVCMKEFDHPNVMRLIGVCFQGSERESFPAPVVILPFMKHGDLHSFLLYSRLGDQPVYLPTQMLVKFMADIASGMEYLSTKRFIHRDLAARNCMLNENMSVCVADFGLSKKIYNGDYYRQGRIAKMPVKWIAIESLADRVYTSKSDVWSFGVTMWEIATRGQTPYPGVENSEIYDYLRQGNRLKQPADCLDGLYALMSRCWELNPQDRPSFTELREDLENTLKALPPAQEPDEILYVNMDEGGGYPEPPGAAGGADPPTQPDPKDSCSCLTAAEVHPAGRYVLCPSTTPSPAQPADRGSPAAPGQEDGA
  Signal to Noise ratio with BRB1 Peptide (TR-FRET kinase assay; kinase 4 nM): 1.8

B3: TXK (protein)
chain: MILSSYNTIQSVFCCCCCCSVQKRQMRTQISLSTDEELPEKYTQRRRPWLSQLSNKKQSNTGRVQPSKRKPLPPLPPSEVAEEKIQVKALYDFLPREPCNLALRRAEEYLILEKYNPHWWKARDRLGNEGLIPSNYVTENKITNLEIYEWYHRNITRNQAEHLLRQESKEGAFIVRDSRHLGSYTISVFMGARRSTEAAIKHYQIKKNDSGQWYVAERHAFQSIPELIWYHQHNAAGLMTRLRYPVGLMGSCLPATAGFSYEKWEIDPSELAFIKEIGSGQFGVVHLGEWRSHIQVAIKAINEGSMSEEDFIEEAKVMMKLSHSKLVQLYGVCIQRKPLYIVTEFMENGCLLNYLRENKGKLRKEMLLSVCQDICEGMEYLERNGYIHRDLAARNCLVSSTCIVKISDFGMTRYVLDDEYVSSFGAKFPIKWSPPEVFLFNKYSSKSDVWSFGVLMWEVFTEGKMPFENKSNLQVVEAISEGFRLYRPHLAPMSIYEVMYSCWHEKPEGRPTFAELLRAVTEIAETW
  Signal to Noise Ratio with BRB1 Peptide (TR-FRET kinase assay; kinase 3 nM): 5.9

B4: ZAP70 (protein)
chain: MPDPAAHLPFFYGSISRAEAEEHLKLAGMADGLFLLRQCLRSLGGYVLSLVHDVRFHHFPIERQLNGTYAIAGGKAHCGPAELCEFYSRDPDGLPCNLRKPCNRPSGLEPQPGVFDCLRDAMVRDYVRQTWKLEGEALEQAIISQAPQVEKLIATTAHERMPWYHSSLTREEAERKLYSGAQTDGKFLLRPRKEQGTYALSLIYGKTVYHYLISQDKAGKYCIPEGTKFDTLWQLVEYLKLKADGLIYCLKEACPNSSASNASGAAAPTLPAHPSTLTHPQRRIDTLNSDGYTPEPARITSPDKPRPMPMDTSVYESPYSDPEELKDKKLFLKRDNLLIADIELGCGNFGSVRQGVYRMRKKQIDVAIKVLKQGTEKADTEEMMREAQIMHQLDNPYIVRLIGVCQAEALMLVMEMAGGGPLHKFLVGKREEIPVSNVAELLHQVSMGMKYLEEKNFVHRDLAARNVLLVNRHYAKISDFGLSKALGADDSYYTARSAGKWPLKWYAPECINFRKFSSRSDVWSYGVTMWEALSYGQKPYKKMKGPEVMAFIEQGKRMECPPECPPELYALMSDCWIYKWEDRPDFLTVEQRMRACYYSLASKVEGPPGSTQKAEAACA
  Signal to Noise ratio with BRB1 Peptide (TR-FRET kinase assay; kinase 4 nM): 7.6

B5: SRM (protein)
chain: MEPFLRRRLAFLSFFWDKIWPAGGEPDHGTPGSLDPNTDPVPTLPAEPCSPFPQLFLALYDFTARCGGELSVRRGDRLCALEEGGGYIFARRLSGQPSAGLVPITHVAKASPETLSDQPWYFSGVSRTQAQQLLLSPPNEPGAFLIRPSESSLGGYSLSVRAQAKVCHYRVSMAADGSLYLQKGRLFPGLEELLTYYKANWKLIQNPLLQPCMPQKAPRQDVWERPHSEFALGRKLGEGYFGEVWEGLWLGSLPVAIKVIKSANMKLTDLAKEIQTLKGLRHERLIRLHAVCSGGEPVYIVTELMRKGNLQAFLGTPEGRALRLPPLLGFACQVAEGMSYLEEQRVVHRDLAARNVLVDDGLACKVADFGLARLLKDDIYSPSSSSKIPVKWTAPEAANYRVFSQKSDVWSFGVLLHEVFTYGQCPYEGMTNHETLQQIMRGYRLPRPAACPAEVYVLMLECWRSSPEERPSFATLREKLHAIHRCHP
  Signal to Noise ratio with BRB1 Peptide (TR-FRET kinase assay; kinase 0.5 nM): 32.5

B6: DDR1 (protein)
chain: RRLLSKAERRVLEEELTVHLSVPGDTILINNRPGPREPPPYQEPRPRGNPPHSAPCVPNGSALLLSNPAYRLLLATYARPPRGPGPPTPAWAKPTNTQAYSGDYMEPEKPGAPLLPPPPQNSVPHYAEADIVTLQGVTGGNTYAVPALPPGAVGDGPPRVDFPRSRLRFKEKLGEGQFGEVHLCEVDSPQDLVSLDFPLNVRKGHPLLVAVKILRPDATKNARNDFLKEVKIMSRLKDPNIIRLLGVCVQDDPLCMITDYMENGDLNQFLSAHQLEDKAAEGAPGDGQAAQGPTISYPMLLHVAAQIASGMRYLATLNFVHRDLATRNCLVGENFTIKIADFGMSRNLYAGDYYRVQGRAVLPIRWMAWECILMGKFTTASDVWAFGVTLWEVLMLCRAQPFGQLTDEQVIENAGEFFRDQGRQVYLSRPPACPQGLYELMLRCWSRESEQRPPFSQLHRFLAEDALNTV
  Signal to Noise ratio with BRB1 Peptide (TR-FRET kinase assay; kinase 0.5 nM): 1

B7: TYK2 (protein)
chain: PHNLADVLTVNPDSPASDPTVFHKRYLKKIRDLGEGHFGKVSLYCYDPTNDGTGEMVAVKALKADCGPQHRSGWKQEIDILRTLYHEHIIKYKGCCEDQGEKSLQLVMEYVPLGSLRDYLPRHSIGLAQLLLFAQQICEGMAYLHAQHYIHRDLAARNVLLDNDRLVKIGDFGLAKAVPEGHEYYRVREDGDSPVFWYAPECLKEYKFYYASDVWSFGVTLYELLTHCDSSQSPPTKFLELIGIAQGQMTVLRLTELLERGERLPRPDKCPCEVYHLMKNCWETEASFRPTFENLIPILKTVHEKYQGQAPSVFSVC
  Signal to Noise ratio with BRB1 Peptide (TR-FRET kinase assay; kinase 4 nM): 7.3

B8: TNK1 (protein)
chain: MLPEAGSLWLLKLLRDIQLAQFYWPILEELNVTRPEHFDFVKPEDLDGIGMGRPAQRRLSEALKRLRSGPKSKNWVYKILGGFAPEHKEPTLPSDSPRHLPEPEGGLKCLIPEGAVCRGELLGSGCFGVVHRGLWTLPSGKSVPVAVKSLRVGPEGPMGTELGDFLREVSVMMNLEHPHVLRLHGLVLGQPLQMVMELAPLGSLHARLTAPAPTPPLLVALLCLFLRQLAGAMAYLGARGLVHRDLATRNLLLASPRTIKVADFGLVRPLGGARGRYVMGGPRPIPYAWCAPESLRHGAFSSASDVWMFGVTLWEMFSGGEEPWAGVPPYLILQRLEDRARLPRPPLCSRALYSLALRCWAPHPADRPSFSHLEGLLQEAGPSEACCVRDVTEPGALRMETGDPITVIEGSSSFHSPDSTIWKGQNGRTFKVGSFPASAVTLADAGGLPATRPVHRGTPARGDQHPGSIDGDRKKANLWDAPPARGQRRNMPLERMKGISRSLESVLSLGPRPTGGGSSPPEIRQARAVPQGPPGLPPRPPLSSSSPQPSQPSRERLPWPKRKPPHNHPMGMPGARKAAALSGGLLSDPELQRKIMEVELSVHGVTHQECQTALGATGGDVVSAIRNLKVDQLFHLSSRSRADCWRILEHYQWDLSAASRYVLARP
  Signal to Noise Ratio with BRB1 Peptide (TR-FRET kinase assay; kinase 1 nM): 6.8

B9: ALK (protein)
chain: VYRRKHQELQAMQMELQSPEYKLSKLRTSTIMTDYNPNYCFAGKTSSISDLKEVPRKNITLIRGLGHGAFGEVYEGQVSGMPNDPSPLQVAVKTLPEVCSEQDELDFLMEALIISKFNHQNIVRCIGVSLQSLPRFILLELMAGGDLKSFLRETRPRPSQPSSLAMLDLLHVARDIACGCQYLEENHFIHRDIAARNCLLTCPGPGRVAKIGDFGMARDIYRASYYRKGGCAMLPVKWMPPEAFMEGIFTSKTDTWSFGVLLWEIFSLGYMPYPSKSNQEVLEFVTSGGRMDPPKNCPGPVYRIMTQCWQHQPEDRPNFAIILERIEYCTQDPDVINTALPIEYGPLVEEEEKVPVRPKDPEGVPPLLVSQQAKREEERSPAAPPPLPTTSSGKAAKKPTAAEISVRVPRGPAVEGGHVNMAFSQSNPPSELHKVHGSRNKPTSLWNPTYGSWFTEKPTKKNNPIAKKEPHDRGNLGLEGSCTVPPNVATGRLPGASLLLEPSSLTANMKEVPLFRLRHFPCGNVNYGYQQQGLPLEAATAPGAGHYEDTILKSKNSMNQPGP
  Signal to Noise ratio with BRB1 Peptide (TR-FRET kinase assay; kinase 4 nM): 8.8

B10: DDR2 (protein)
chain: RQFWQKMLEKASRRMLDDEMTVSLSLPSDSSMFNNNRSSSPSEQGSNSTYDRIFPLRPDYQEPSRLIRKLPEFAPGEEESGCSGVVKPVQPSGPEGVPHYAEADIVNLQGVTGGNTYSVPAVTMDLLSGKDVAVEEFPRKLLTFKEKLGEGQFGEVHLCEVEGMEKFKDKDFALDVSANQPVLVAVKMLRADANKNARNDFLKEIKIMSRLKDPNIIHLLAVCITDDPLCMITEYMENGDLNQFLSRHEPPNSSSSDVRTVSYTNLKFMATQIASGMKYLSSLNFVHRDLATRNCLVGKNYTIKIADFGMSRNLYSGDYYRIQGRAVLPIRWMSWESILLGKFTTASDVWAFGVTLWETFTFCQEQPYSQLSDEQVIENTGEFFRDQGRQTYLPQPAICPDSVYKLMLSCWRRDTKNRPSFQEIHLLLLQQGDE
  Signal to Noise ratio with BRB1 Peptide (TR-FRET kinase assay; kinase 0.5 nM): 1

B11: LYNb (protein)
chain: MGCIKSKGKDSLSDDGVDLKTQPVPESQLLPGQRFQTKDPEEQGDIVVALYPYDGIHPDDLSFKKGEKMKVLEEHGEWWKAKSLLTKKEGFIPSNYVAKLNTLETEEWFFKDITRKDAERQLLAPGNSAGAFLIRESETLKGSFSLSVRDFDPVHGDVIKHYKIRSLDNGGYYISPRITFPCISDMIKHYQKQADGLCRRLEKACISPKPQKPWDKDAWEIPRESIKLVKRLGAGQFGEVWMGYYNNSTKVAVKTLKPGTMSVQAFLEEANLMKTLQHDKLVRLYAVVTREEPIYIITEYMAKGSLLDFLKSDEGGKVLLPKLIDFSAQIAEGMAYIERKNYIHRDLRAANVLVSESLMCKIADFGLARVIEDNEYTAREGAKFPIKWTAPEAINFGCFTIKSDVWSFGILLYEIVTYGKIPYPGRTNADVMTALSQGYRMPRVENCPDELYDIMKMCWKEKAEERPTFDYLQSVLDDFYTATEGQYQQQP
  Signal to Noise Ratio with BRB1 Peptide (TR-FRET kinase assay; kinase 1 nM): 33.1
